Source: the supplement of paper PMC9732359
± gives the uncertainty stated by the source.

Test: protein stability index of a GFP-peptide fusion (yeast GPS) (PSI 1-4); higher = more stable; sorted into four equal gates, so the index is relative within each strain
Conditions: pdr5∆
Method in brief: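 For each peptide, the protein stability index sums the read frequency in every gate after multiplying it by the gate number. Read frequencies came from plasmids that were PCR-amplified from each gate and Illumina-sequenced, with reads assigned to strains by barcodes. The gates were four equal bins of GFP/Cherry fluorescence ratio applied to mid-log yeast in leucine-free medium carrying a pooled library of tiled 17-residue yeast protein peptides fused downstream of GFP on a Cherry-expressing plasmid.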

Sequence	protein stability index
KREEKAMTIYWDDHTKK [CDC53]	2.2 ± 0.068
KRFMNTSQNPQRDAEIS [BRR2]	3.03 ± 0.085
KRGVKGVEYRLRLRISR [RPL31A]	1.36 ± 0.12
KRHRSSYYDNDLDETTQ [YML031W/NDC1]	2.76 ± 0.071
KRINFEKIKDIHNTKLP [POP1]	3.06 ± 0.13
KRITQITIEPGVDVEVV [RPS20]	1.78 ± 0.17
KRKWSYVLYAKIVVLSR [RRP43]	2.36 ± 0.064
KRKYDEITHPPSTTDDE [SWI3]	3.23 ± 0.12
KRKYLDIPIDEMTLPTS [SSN2]	2.81 ± 0.15
KRQAYAVSEKAGHQTSA [RPL4A]	1.4 ± 0.13
KRQELEEASQQQQLQQN [MED2]	2.65 ± 0.083
KRTRLESLKNLNESRSQ [SMC3]	2.4 ± 0.075
KRVVVPQALRVLRLKPG [RPL16A]	3.11 ± 0.1
KSAEGNNIDQSLILKES [YAR002W/NUP60]	2.86 ± 0.063
KSAVSHAPAYHRSKKDQ [IRR1]	2.79 ± 0.11
KSDEGGSYLCTSSTPSP [YOR098C/NUP1]	3.09 ± 0.079
KSGTSHDAIFSIYKYIH [SNF12]	2.66 ± 0.054
KSHVLLATPVQFELLSR [BRR2]	1.58 ± 0.052
KSIMDGIHDGHIKKLLH [FAS1]	1.48 ± 0.037
KSIQDIVGLATLIVNTD [SRP21]	3.05 ± 0.05
KSIRKDTVEEKKEEKLN [SIR4]	3.2 ± 0.12
KSLEDLSCQYDNTVRTS [RPO31]	1.31 ± 0.14
KSMELFYDIRSLLERHI [YJL039C/NUP192]	2.99 ± 0.038
KSPSLTAQKYPIYTGDG [YMR153W/NUP53]	2.19 ± 0.051
KSRMINFLDAPGHVNFM [SNU114]	2.65 ± 0.17
KSSDSNDSNPSFSFSIP [YLR335W/NUP2]	2.53 ± 0.048

Sequence	protein stability index
KTCQWYSEHLKPYDINV [DIS3]	2.95 ± 0.14
KTIVTGGNGPEDFQQHE [RPO26]	3.33 ± 0.055
KTKILEVAIRDVNLDVR [IRR1]	2.12 ± 0.065
KTLIGLQGIVIWDSQKF [POP4]	1.91 ± 0.051
KTPNRSSTPKFTKKPVT [SIR4]	2.81 ± 0.082
KTPVFTTGGDYILSLVS [YMR129W/POM152]	2.13 ± 0.058
KTQEYYTQYTNDYLEKH [CDC53]	2.42 ± 0.067
KTRFKGSQFIVVSLKEG [SMC2]	3.16 ± 0.08
KTSKDIAVLRSKEWFQL [FAS1]	2.07 ± 0.031
KTTDHLFDAAFYMKKDA [RPO31]	3.21 ± 0.071
KTTPNTASSEASAGSKE [YMR153W/NUP53]	3.34 ± 0.061
KTYKEGINKNEEYRKQL [SMC1]	2.2 ± 0.084
KTYNCLHEKYLTEGGSI [SMC1]	3.05 ± 0.072
KVDIFEIPETGEYSVKL [FAS2]	3.37 ± 0.08
KVFDTLTRFSHDADLEV [RPN1]	2.31 ± 0.054
KVGEDIAKATKEFKGIK [RPL12A]	3.22 ± 0.14
KVGQFDQVLNLCLTEFE [FAS1]	2.97 ± 0.062
KVKLFHGILDDLETSLS [MED2]	3.09 ± 0.075
KVLEMKNLKDTASVEKA [YIL149C/MLP2]	3.26 ± 0.093
KVNPNIMNMIENVEKKE [SMC2]	2.71 ± 0.12
KVSSLKMFIQRILAMCV [YCS4]	2.48 ± 0.061
KVVGPRGTLTKNLKHID [RPL9A]	2.98 ± 0.065
KWAGIKTRKFVFNPPKP [CYT1]	2.98 ± 0.24
KWEQTYKKPTGGIVTVR [FAS1]	2.04 ± 0.054
KYKSGGKFSFSPLQKEE [SSN2]	1.43 ± 0.064
KYKSNTNNMEKIIEDLR [SMC2]	3.23 ± 0.055

Sequence	protein stability index
KYLGLKPGSIDAISQVI [FAS1]	3.1 ± 0.075
KYVHVSEVGNCSGSGMG [FAS2]	3.08 ± 0.058
LAFDKLNVPVFQIVIEP [ARP7]	2.23 ± 0.061
LAKERQKLWLLECQLFP [SSN8]	1.85 ± 0.052
LAKKWFLQHPDEEYPVK [PRP8]	3.15 ± 0.15
LAKPVFHVGFIAKIKKV [RPO21]	2.15 ± 0.067
LALALGILYMGQGEQVD [RPN1]	1.5 ± 0.13
LALGSHNKLIQFGNACI [SSN2]	1.6 ± 0.087
LANEERLSNEMHALKNR [RGR1]	3.42 ± 0.07
LANRSKENFILDSLMKT [YJL039C/NUP192]	2.64 ± 0.12
LARRTDAPFNKVVLKAL [RPL18A]	1.28 ± 0.048
LASKIKQYERLRFYKDT [RRI1]	2.52 ± 0.062
LASRNKWDDLNEQLTLL [RPN5]	3.4 ± 0.072
LAVEDKPSPIDSGIGSN [CSL4]	3.27 ± 0.062
LAVFLFDIYNRDRKLIT [YJL039C/NUP192]	1.46 ± 0.13
LAVKVHGGSRYATKDGV [QCR2]	1.18 ± 0.1
LAVSTILGKNFDSVIVE [SMC1]	2.59 ± 0.064
LCHPKKEKYGLAVSTIL [SMC1]	2.31 ± 0.063
LCLMTWKEVMFDPSKDV [CDC53]	2.72 ± 0.068
LCQKSPVMADLNGGLQF [FAS2]	2.65 ± 0.17
LCRNPLTSGLLYSYLIK [YJL039C/NUP192]	1.84 ± 0.06
LDALVDCENFFNYVQEC [YJL039C/NUP192]	3.43 ± 0.084
LDDEKIFSQTTNSTYNP [YJL039C/NUP192]	2.85 ± 0.053
LDDLQVILAKNENETRD [PGD1]	3.05 ± 0.08
LDEDDTNDGIERYSDKY [RPC31]	3.4 ± 0.12
LDERGHEKIEDEDEDND [RPN4]	3.44 ± 0.15

Sequence	protein stability index
LDGELDFDDFLKLGLVE [RET1]	3.08 ± 0.12
LDGVSYLHQNWVLHRDL [SSN3]	2.11 ± 0.081
LDKDRKALIQRKGGKLE [RPL26A]	3.5 ± 0.21
LDKLNCAINSKSRGSDL [RRP6]	2.93 ± 0.042
LDLAGPLLAQLFKTLFK [RPB2]	1.25 ± 0.037
LDLSRSNGVLNVDNQTS [RPS17A]	3.09 ± 0.22
LDNMTYSSVAGTVSRVN [RRP4]	2.52 ± 0.05
LDPLARVSKDKKSGSLT [FAS2]	3.2 ± 0.096
LDPLTKDPVDFVRQAAM [RPN2]	3.53 ± 0.14
LDPYERAIYSYLSGAIP [YDL116W/NUP84]	3.11 ± 0.082
LDSGDDQPQSSEAKRTK [BRR2]	3.26 ± 0.057
LDSTGFDSTAFNATVDE [MED2]	3.27 ± 0.053
LDTQLNDLRVSLNEKNA [SMC1]	3.13 ± 0.082
LDVTKEAQANLLTAKHG [RPO21]	3.46 ± 0.18
LDYQETYVEELFPIVKK [YJL039C/NUP192]	3.07 ± 0.1
LDYQIGNSESKVEKGVN [LIN1]	3.4 ± 0.18
LEAARSEKQNDEEAAGA [PRP8]	2.04 ± 0.078
LEAPVKSIENPTQTKGN [YLR335W/NUP2]	3.17 ± 0.055
LEDPYKYHYKEEWLNTK [CSN9]	3.2 ± 0.083
LEDYVPHQSPDATRVFV [RPB2]	2.87 ± 0.055
LEEIRGNPLSIGTLEEI [RPT2]	3.42 ± 0.14
LEGEEIKSEEKKGKSSD [RPN1]	2.17 ± 0.07
LEKERSILDDIKLSLKD [SMC4]	2.85 ± 0.14
LENSSRSPRVVTNALDN [NUT1]	2.51 ± 0.058
LEQLAQHTTESDNISRK [RPB2]	3.35 ± 0.12
